US9567369B2, “Method of treating metastatic cancer” (A.T. Still University, priority 2012, dated 2017)
Ends that are not written are not given here.

Legend:
[1] = test system: metastatic human melanoma 1205 Lu cells; assay: MTT growth assay of human 1205 Lu melanoma cells with peptide; assay type: cell-based; details: peptide 10 uM, 1 time addition or day 1-3 addition; identical conditions as for B16
Method: B16F10 melanoma cells were obtained from the ATCC. Human 1205 Lu metastatic melanoma cell line was received from Robert Baer, PhD, a collaborator with our laboratory here at ATSU. Growth was in RPMI 1640 media supplemented with FBS (10%) and penicillin, streptomycin, amphotericin antibiotics (1%) (Sigma). Cells were maintained in a humidified incubator at 37° C. with 5% CO2.
The growth of B16F10 melanoma cells by the MTT method was performed with the addition of 10 uM peptide to the melanoma cells in standard 96-well culture plates. Cells were cultured in media for 4 days after seeding at about 1000 cells per well. After growth the culture media was replaced with media containing 0.5 mg/ml MTT solution and incubated for 4 hours at 37° C. The MTT solution was then removed and the residual dye was solubilized in 100 ul isopropanol for 15 minutes before reading the O.D. at 570 nm.

[2] = test system: protein kinase C (PKC); assay: Inhibition of protein kinase C activity
[3] = target: T1, papain (Carica papaya, UniProt P00784); details: at 160 uM; cited from earlier work
T1 sequence (P00784 134-345): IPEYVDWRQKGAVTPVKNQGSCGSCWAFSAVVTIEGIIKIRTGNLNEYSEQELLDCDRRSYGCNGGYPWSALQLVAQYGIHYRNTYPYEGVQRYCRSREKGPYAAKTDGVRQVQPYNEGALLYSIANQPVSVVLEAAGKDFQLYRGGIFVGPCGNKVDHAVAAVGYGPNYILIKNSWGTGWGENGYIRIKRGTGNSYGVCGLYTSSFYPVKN

[4] = test system: B16 melanoma cells; assay: Boyden chamber-type migration assay, Cystatin C overexpressing clone cc6 versus control plasmid clone pc2; assay type: cell-based, murine; details: B16 melanoma cells overexpressing Cystatin C (clone cc6) compared to control plasmid transfected (pc2); bFGF chemotactic factor
Excerpt: (§1) The Cystatin C cDNA was amplified from B16F10 melanoma cells by PCR amplification of reverse transcribed total RNA isolated from B16 F10 melanoma cells in culture. The primers used for the amplification were derived from 5′ and 3′ sequences for murine Cystatin C from Solem et al. (18). The PCR product corresponding to the expected size was agarose gel purified and ligated into pcDNA3 expression plasmid for further analysis. The plasmid was sent to for sequence analysis at the University of Chicago and the sequence analysis produced a cDNA sequence which exactly matched murine Cystatin C cDNA sequence (19). Transfection of the cystatin plasmid or pcDNA3 plasmid was carried out with Lipofectamine™ reagent (Invitrogen) by the manufacturer's instructions. Isolated cell colonies, which had grown following Geneticin® (1 mg/ml) selection were trypsized in glass cloning rings and transferred to multi-well tissue culture dishes for expansion in culture.
Cells (2×104) are placed into the top well of the Boyden chamber in cell culture media while media plus bFGF chemotactic factor (25 ng/ml) is placed into the lower well of the chamber. Quantitation is through direct microscopic counting of 10-20 fields of crystal violet stained cells per filter.

[5] = test system: MARCKS phosphorylation in B16F10 melanoma cells; assay: MARCKS phosphorylation by western blot with phospho-antibody probing; assay type: cell-based; details: murine Cystatin C overexpressing clone cc6 B16F10 melanoma cells vs control
Excerpt: as §1
For analysis of B16 melanoma proteins, melanoma cell cultures were lysed with lysis buffer and extracts were centrifuged at 10K rpm for 5 minutes. Protein was measured by Lowry assay and 40 ug of protein was loaded per lane on 10% SDS-PAGE gels for analysis. After electrophoresis, the proteins were transferred to PVDF membranes which were first blocked with 2% BSA in TBST buffer. […]

## RQIKIWFPNRRMKWKKAYRKQLVAGVNYFFDVH [penetratin linked to active peptide]
[1]
  growth of human 1205 Lu melanoma cell line: significantly inhibits

## YRKQLVAGVNYFFDVH (listed as Mus musculus) [therapeutic peptide, Therapeutic peptide derived from mouse Cystatin C with the first A substituted by Y]
[2]
  inhibition of protein kinase C (PKC) activity: inhibits
[3]
  inhibition of papain: 20%

B1: Cystatin C: natural cysteine protease inhibitor; murine Cystatin C cDNA overexpressed from pcDNA3 plasmid in B16F10 melanoma cells (clone cc6) (protein, UniProt P21460 21-140, looked up)
Cystatin-C: ATPKQGPRMLGAPEEADANEEGVRRALDFAVSEYNKGSNDAYHSRAIQVVRARKQLVAGVNYFLDVEMGRTTCTKSQTNLTDCPFHDQPHLMRKALCSFQIYSVPWKGTHSLTKFSCKNA
[4]
  inhibition of migration: ~80%
[5]
  average level of MARCKS phosphorylation, fold less: 3-5 fold
